Experiment [1] concerns the target human CD19 expressed on the cell surface (native format) (human) (UniProt P15391). The experiment can be described thus: bi-specific antibody titration flow cytometry on Raji cells. For orientation: In flow cytometry, cells or beads pass a laser one at a time.
Experiment [2] shares this target. Description: apparent KD from bi-specific antibody titration flow cytometry on Raji cells.
Experiment [3] has the same target. The experiment can be described thus: flow cytometry, human PBMC gated on CD20+CD3- B cells, FITC anti-His detection.

Drawing on patent publication US20190315859A1, this text covers EC50, Kd and Mean Fluorescence Intensity (MFI) in FITC channel for three molecules.

In general, EC50 refers to the concentration giving half of the maximal effect. Read a low EC50 as higher potency in that assay.

Chain of human CD19 expressed on the cell surface (native format) (human) (P15391 20-488 limits assumed): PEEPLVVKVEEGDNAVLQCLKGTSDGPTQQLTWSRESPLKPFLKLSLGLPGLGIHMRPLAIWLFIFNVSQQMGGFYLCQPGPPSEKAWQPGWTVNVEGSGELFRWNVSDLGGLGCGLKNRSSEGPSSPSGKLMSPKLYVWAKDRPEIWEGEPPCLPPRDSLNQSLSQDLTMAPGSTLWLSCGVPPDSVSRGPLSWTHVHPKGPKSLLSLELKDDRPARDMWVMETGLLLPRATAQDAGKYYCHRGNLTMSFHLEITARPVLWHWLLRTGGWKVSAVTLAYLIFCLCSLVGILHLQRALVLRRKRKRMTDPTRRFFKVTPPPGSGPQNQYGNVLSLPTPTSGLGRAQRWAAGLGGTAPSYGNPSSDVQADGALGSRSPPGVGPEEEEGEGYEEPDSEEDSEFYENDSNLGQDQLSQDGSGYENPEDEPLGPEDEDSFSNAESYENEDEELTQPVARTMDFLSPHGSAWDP

B1: CD19×CD3 bi-specific antibody based on variant clone 5-3 (bispecific antibody, part only; not given: anti-CD3 scFv, linker, His tag, not shown: another chain or arm of the molecule; small tags and cut ends)
scFv: LPVLTQPPSVSVAPGKTARITCGGNNIGSKSVHWYQQKPGQAPVLVVYDDSNRPSGIPERFSGSNSGNTATLTISRVEAGDEADYYCQVWDSSSEYVVFGGGTKLTVLGSRGGGGSGGGGSGGGGSLEMAEVQLVQSGAEVKKPGESLKISCKGSGYSFTSYWIGWVRQMPGKGLEWMGIIYPGDSDTRYSPSFQGQVTISADKSISTAYLQWSSLKASDTAMYYCARQVWGWQGGMYPRSNWWYNMDSWGQGTLVTVSS
With B1, in experiment [1], the EC50 was found to be 0.081 µg/mL. Besides, the Kd in experiment [2] was found to be 1.6 nM.

B2: CD19×CD3 bi-specific antibody based on clone 7 (bispecific antibody, part only; not given: anti-CD3 scFv, linker, His tag, not shown: another chain or arm of the molecule; small tags and cut ends)
scFv: QPVLTQPPSVSVAPGKTARITCGGNNIGSESVHWYQQKPGQAPMVVIYYDSNRPSGIPERFSGSNSGNTATLTVSRVEAEDEADYYCQVWNSSSDHRGVFGGGTKLTVLGSRGGGGSGGGGSGGGGSLEMAEVQLVQSGAEVKKPGESLRISCKGSGYSFTSYWIGWVRQMPGKGLEWMGIIYPGDSDTRYSPSFQGQVTISADKSISTAYLQWSSLKASDTAMYYCARVTYSMDSYYFDSWGQGTLVTVSS
With B2, the Mean Fluorescence Intensity (MFI) in FITC channel in experiment [3] worked out at 1880 MFI.

B3: CD19×CD3 bi-specific antibody based on clone 6 (bispecific antibody, part only; not given: anti-CD3 scFv arm, linker, His tag, not shown: another chain or arm of the molecule; small tags and cut ends)
scFv: QAVLTQPPSVSEAPRQRVTISCSGSSSNVGNNAVNWYQQVPGKAPKLLIYYDDLLSSGVSDRFSGSKSGTSASLAISGLQSEDEADYYCAAWDDSLNGPVFGGGTKLTVLGSRGGGGSGGGGSGGGGSLEMAEVQLVQSGAEVKKPGESLKISCKGSGYSFTSYWIGWVRQMPGKGLEWMGIIYPGDSDTRYSPSFQGQVTISADKSISTAYLQWSSLKASDTAMYYCARWSSTWDSMYMDYWGQGTLVTVSS
B3 registered an EC50 in experiment [1] of 0.214 µg/mL. Moreover, the Kd in experiment [2] worked out at 4.1 nM. The Mean Fluorescence Intensity (MFI) in FITC channel in experiment [3] was 2200 MFI.
